Reference: US11752086B2, “Topical formulations and methods” (MYOCEPT INC., priority 2017, dated 2023)

Assay: isoelectric point (pI) as stated
Format: physicochemical
Protocol: For the second study this procedure was modified to include a chromatographic enrichment/purification step over a HiTrap SP-Sepharose cation exchange column (GE Healthcare). Both MCPT-201 and alpha cobratoxin are highly positively charged proteins with a pI of 8.2. They are routinely purified on cation exchange resigns such as SP-Sepharose. The sample buffer in the Franz cell receiving chamber was changed to 50 mM MES-NaOH, 20 mM NaCl, 0.1 mM EDTA, pH 6.0 in order to make samples directly compatible with cation exchange chromatography over SP-Sepharose.

## alpha cobratoxin
  pI: 8.2
